Data as given in patent US20100169988A1, “MEANS AND METHODS FOR ISOLATING AND DETERMINING NOVEL TARGETS FOR THE TREATMENT OF NEURODEGENERATIVE, NEUROLOGICAL OR NEUROPSYCHIATRIC DISORDERS AND COMPOSITIONS COMPRISING THE SAME” (priority 2006, published 2010).

What was measured:
[1] = target: APP-TAP-AICD (human) (UniProt P05067); assay: streptavidin purification of APP-TAP-AICD from brain homogenate; iTRAQ 116/114, transgenic mouse 75 vs control mouse 72; MALDI-TOF/TOF
[2] = target: APP-TAP-AICD (human) (UniProt P05067); assay: streptavidin purification of APP-TAP-AICD from brain homogenate; LTQ-FT semiquantitative method, transgenic mouse 75 vs control mouse 72

Row | probability that this protein is enriched [2] | Substance | iTRAQ ratio [1]
1 | – | Heat shock protein HSP 90-alpha (HSP 86) (Tumor specific transplantation 86 kDa antigen) (from UniProt P07901 2-733) | 4.22
2 | 0.88 | Lrrk1 protein (Fragment), Q3UHC2 1-2014 | –
3 | – | Syntaxin-1B2 (from UniProt P61264 1-288) | 4.57
4 | 0.87 | fructose-bisphosphate aldolase A homolog (Adult male testis cDNA, RIKEN clone 4933425L11 product) (enzyme) | –

Row | Substance | probability that this protein is enriched [2] | iTRAQ ratio [1]
5 | similar to heat shock protein 1, alpha isoform 1 | 1 | –
